From patent US7507799 (CORNELL RESEARCH FOUNDATION, dated 2009) come the findings set out here.

A value given as a limit tells only on which side of the number the result lay.

Assay [1] concerns the target p75 on vascular smooth muscle cell line (p75Ts-Tag-SMC). Briefly: cell-based or functional assay.
The target of assay [2] is T1, p75NTR on A875 cells (UniProt P08138 29-427).
T1 construct: whole, on cells; also called p75 receptor; cells expressing only p75
T1 sequence (looked up): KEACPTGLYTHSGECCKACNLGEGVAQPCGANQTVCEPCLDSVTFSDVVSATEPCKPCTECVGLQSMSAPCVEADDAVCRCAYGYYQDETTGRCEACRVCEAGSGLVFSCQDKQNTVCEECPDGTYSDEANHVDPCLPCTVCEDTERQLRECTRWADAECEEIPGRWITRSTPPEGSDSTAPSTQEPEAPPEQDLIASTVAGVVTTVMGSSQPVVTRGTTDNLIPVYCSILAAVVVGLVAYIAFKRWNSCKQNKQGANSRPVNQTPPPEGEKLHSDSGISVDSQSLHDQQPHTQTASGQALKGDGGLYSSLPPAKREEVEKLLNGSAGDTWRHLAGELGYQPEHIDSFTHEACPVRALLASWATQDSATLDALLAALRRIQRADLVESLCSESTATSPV
In words: whole-cell competition against 1 nM 125I-NGF on cells expressing only p75 (A875 cells). Here is the method:
(§1) FIG. 8: Binding analysis of mature and cleavage-resistant pro-NGF to TrkA or p75^NTR receptors. […] Competition analysis of equilibrium binding was performed using a whole-cell assay. Cells were incubated with 1 nM radioiodinated NGF in the presence or absence of unlabeled mature NGF or unlabeled proNGF from 0.005 to 7 nM concentration for 1 hour at […] Nonspecific binding measured in parallel incubation with 500-fold excess mature NGF was less than 10% of total binding; all results were corrected for this non-specific binding. Each point represents the mean±standard deviation of quadruplicate determinations. Squares, commercial mature NGF; open circles, cleavage resistant pro-NGF.
(§2) The cleavage resistant proform of NGF binds with higher affinity than the cleaved mature form of NGF to the p75 receptor. Competition binding assays were performed to determine the affinity of interaction of the uncleaved proform to p75 or to trk A. Commercially purchased, predominantly mature NGF (Enzo Products for Science, Farmingdale, N.Y.) was radiolabeled and incubated with cells expressing only p75, in the presence or absence of increasing concentrations of either unlabeled cleaved NGF, or of unlabeled cleavage resistant pro-NGF. […] Thus, the cleavage resistant pro-NGF proform binds less effectively to trk A.

Assay [3] addresses TrkA on 293 cells. In words: whole-cell competition against 1 nM 125I-NGF on 293 cells expressing only trk A. The procedure: as §1, §2
Assay [4] addresses T1, p75NTR on A875 cells. In words: ratio of IC50s, whole-cell competition against 125I-NGF on cells expressing only p75. The procedure: as §1, §2

Chain of TrkA on 293 cells (chain, as listed by the source): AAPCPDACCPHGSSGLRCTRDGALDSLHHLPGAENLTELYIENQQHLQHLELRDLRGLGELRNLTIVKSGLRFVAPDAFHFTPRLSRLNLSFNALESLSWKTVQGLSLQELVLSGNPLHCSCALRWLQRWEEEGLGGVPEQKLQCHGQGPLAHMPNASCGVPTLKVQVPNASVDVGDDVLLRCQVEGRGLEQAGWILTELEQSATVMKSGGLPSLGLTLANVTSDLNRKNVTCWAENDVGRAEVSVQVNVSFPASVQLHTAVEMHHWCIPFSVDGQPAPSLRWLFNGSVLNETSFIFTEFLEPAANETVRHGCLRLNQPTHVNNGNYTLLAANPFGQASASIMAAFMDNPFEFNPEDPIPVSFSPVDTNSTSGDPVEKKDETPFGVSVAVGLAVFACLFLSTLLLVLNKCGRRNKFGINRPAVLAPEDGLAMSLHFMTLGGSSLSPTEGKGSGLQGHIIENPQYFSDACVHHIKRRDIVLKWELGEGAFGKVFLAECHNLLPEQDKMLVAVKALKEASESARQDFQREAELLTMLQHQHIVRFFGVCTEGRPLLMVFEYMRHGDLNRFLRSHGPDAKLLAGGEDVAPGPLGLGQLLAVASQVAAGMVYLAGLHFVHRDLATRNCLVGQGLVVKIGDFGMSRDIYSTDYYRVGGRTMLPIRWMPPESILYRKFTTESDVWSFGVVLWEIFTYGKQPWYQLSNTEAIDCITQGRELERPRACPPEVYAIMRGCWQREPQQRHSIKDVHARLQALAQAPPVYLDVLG

B1: His-tagged cleavage resistant pro-NGF (point mutant, K-R cleavage site at 120,121 mutated to A-A) (ligand)
chain: EPYTDSNVPEGDSVPEAHWTKLQHSLDTALRRARSAPTAPIAARVTGQTRNITVDPRLFKKRRLHSPRVLFSTQPPPTSSDTLDLDFQAHGTIPFNRTHRSAASSTHPVFHMGEFSVCDSVSVWVGDKTTATDIKGKEVTVLAEVNINNSVFRQYFFETKCRASNPVESGCRGIDSKHWNSYCTTTHTFVKALTTDEKQAAWRFIRIDTACVCVLSRKATRRG
notes: also called cleavage resistant proform of NGF; uncleaved proform; not shown: His tag at the carboxy-terminus
The IC50 is the concentration that gives 50% inhibition. Lower therefore signals greater potency. In the case of B1, in assay [1], the “induction of apoptosis relative to mature NGF” value was about 10 fold. Besides, the half-maximal inhibitory concentration (IC50) is 0.2 nM in assay [2] and over 5 nM in assay [3]. Further, in assay [4], the “times as effective in binding p75 as cleaved NGF” value is about 5 fold.
